The target of this experiment is NRC4 (NLR required for cell death 4) with the mutations L9E and D478V. Description: cryo-EM structure.

“And” between values parts separate entries of the source, which are not always exact repeats. Identical values can stand only once.

Take “NRC4 (NLR required for cell death 4) with the mutations L9E and D478V (natural protein)”: the stoichiometry N is 6 and 12.
